Measurements: patent US7265263B1, “Potato transcription factors, methods of use thereof, and a method for enhancing tuber development” (Iowa State University Research Foundation, Inc., priority 2002, dated 2007)

What was measured:
[1] = test system: potato ga20ox1 promoter (P1, P2, P3) and first intron; experiment: Gel retardation assay with ga20ox1 promoter regions and first intron; type: binding
Description: The first intron with partial flanking exon sequence (450 bp) of potato ga20ox1 and its promoter (981 bp, provided by Dr. Salomé Prat, CSIC Cantoblanco Campus, Univ. of Madrid, Spain) were used for gel mobility shift assays. Polymerase chain reaction (PCR) was used to amplify three regions of the promoter: -981 to 636 (P1), -660 to 307 (P2), and -331 to 0 (P3). About a 25-bp overlap was maintained between P1 and P2 or P2 and P3 in the chance that the protein-binding site would span the overlapped region. The first intron of this gene was amplified from potato genomic DNA by using PCR and the oligos 5′-[…]-3′ (SEQ ID NO:21) and 5′-[…]-3′ (SEQ ID NO:22) as primers. These primers were designed based on the site of the first intron of the tobacco GA20 oxidase gene Ntc12. The four fragments were purified on a 1.4% agarose gel and labeled with α^32P-dATP using Klenow fragment. […]
In the competition assays, unlabeled double-stranded DNA fragments (10×, 25×, 50×, 100×) were incubated with the recombinant protein before the addition of the radioactive probe. The dissociation rates were determined by adding 500-fold more cold DNA fragments to the DNA-binding reactions that were being incubated on ice, and loaded onto the running gel every 10 minutes. […]

POTH1 = experiment: In vitro binding assay (immunoprecipitation) with POTH1; parameters: species or system Solanum tuberosum; settings: in vitro transcription/translation, anti-GAD
Description: In vitro binding experiments were performed as described by Ni et al., “PIF3, a Phytochrome-Interacting Factor Necessary for Normal Photoinduced Signal Transduction, is a Novel Basic Helix-Loop-Helix Protein,” Cell 95:657-667 (1998), which is hereby incorporated by reference in its entirety. The full-length sequence for POTH1 was cloned into a pET17b/GAD fusion cassette and transcribed under the control of the T7 promoter. […] Each 50 μl TnT reaction contained 2.0 μg of template plasmid DNA and 20 μmol (20 μCi) of labeled ^35S-methionine. The POTH1:GAD/BEL complex was immunoprecipitated with anti-GAD antibodies (Santa Cruz Biotechnology, Calif.). The proteins from the pellet (one-half the fraction) and for the prey (one-fourth of the reaction volume) were resolved on a 10% SDS-PAGE gel and visualized by autoradiography.

GAD protein alone = target: T1, GAD protein alone (UniProt P04386 768-881, limits assumed); experiment: in vitro translated 35S-labelled proteins, immunoprecipitation with anti-GAD antibodies
T1 construct: Control of the immunoprecipitation
T1 sequence (looked up): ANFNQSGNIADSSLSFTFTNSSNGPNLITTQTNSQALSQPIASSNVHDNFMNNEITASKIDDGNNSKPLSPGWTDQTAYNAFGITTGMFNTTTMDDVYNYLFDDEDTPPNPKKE
Description: In vitro binding experiments were performed as described by Ni et al., "PIF3, a Phytochrome-Interacting Factor Necessary for Normal Photoinduced Signal Transduction, is a Novel Basic *Helix*-Loop-Helix Protein," *Cell* 95:657-667 (1998), which is hereby incorporated by reference in its entirety. The full-length sequence for POTH1 was cloned into a pET17b/GAD fusion cassette and transcribed under the control of the T7 promoter. The BEL cDNAs were cloned into pGEM11Z vectors and were transcribed under the control of the T7 promoter. ^35S-methionine labeled bait and prey proteins were synthesized using the TnT in vitro transcription-translation kit (Promega) according to the manufacturer's protocols. Each 50 μl TnT reaction contained 2.0 μg of template plasmid DNA and 20 μmol (20 μCi) of labeled ^35S-methionine. The POTH1:GAD/BEL complex was immunoprecipitated with anti-GAD antibodies (Santa Cruz Biotechnology, Calif.). The proteins from the pellet (one-half the fraction) and for the prey (one-fourth of the reaction volume) were resolved on a 10% SDS-PAGE gel and visualized by autoradiography.

POTH1, sequence (as listed by the source): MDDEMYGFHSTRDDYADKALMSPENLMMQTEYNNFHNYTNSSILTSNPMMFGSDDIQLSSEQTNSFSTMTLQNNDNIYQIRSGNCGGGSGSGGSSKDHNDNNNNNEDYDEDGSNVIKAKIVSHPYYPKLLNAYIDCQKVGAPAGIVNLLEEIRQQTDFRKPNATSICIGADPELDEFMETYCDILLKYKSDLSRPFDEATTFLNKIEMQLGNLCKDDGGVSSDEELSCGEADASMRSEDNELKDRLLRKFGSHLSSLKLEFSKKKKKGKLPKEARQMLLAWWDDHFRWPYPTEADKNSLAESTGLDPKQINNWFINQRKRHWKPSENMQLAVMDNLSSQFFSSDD

B1: StBEL-05 protein from pGEM11Z (in vitro transcription/translation) (other)
chain: MYYQGTSDNTNIQADHQQRHNHGNSNNNNIQTLYLMNPNNYMQGYTTSDTQQQQQLLFLNSSPAASNALCHANIQHAPLQQQHFVGVPLPAVSLHDQINHHGLLQRMWNNQDQSQQVIVPSSTGVSATSCGGITTDLASQLAFQRPIPTPQHRQQQQQQGGLSLSLSPQLQQQISFNNNISSSSPRTNNVTIRGTLDGSSSNMVLGSKYLKAAQELLDEVVNIVGKSIKGDDQKKDNSMNKESMPLASDVNTNSSGGGESSSRQKNEVAVELTTAQRQELQMKKAKLLAMLEEVEQRYRQYHHQMQIIVLSFEQVAGIGSAKSYTQLALHAISKQFRCLKDAIAEQVKATSKSLGEEEGLGGKIEGSRLKFVDHHLRQQRALQQIGMMQPNAWRPQRGLPERAVSVLRAWLFEHFLHPYPKDSDKIMLAKQTGLTRSQVSNWFINARVRLWKPMVEEMYLEEVKNQEQNSTNTSGDNKNKETNISAPNEEKHPIITSSLLQDGITTTQAEISTSTISTSPTAGASLHHAHNFSFLGSFNMDNTTTTVDHIENNAKKQRNDMHKFSPSSILSSVDMEAKARESSNKGFTNPLMAAYAMGDFGRFDPHDQQMTANFHGNNGVSLTLGLPPSENLAMPVSQQNYLSNDLGSRSEMGSHYNRMGYENIDFQSGNKRFPTQLLPDFVTGNLGT
notes: 35S-methionine labelled prey; also called p11Z-5
binding to ga20ox1 regulatory regions (mobility shift) [1]: retarded the mobility of all three promoter sequences and the first intron
pull-down by POTH1 in immunoprecipitation (POTH1): pulled down
binding result (GAD protein alone): no binding
